In the data set the target is T1, GST-TAp73α (UniProt O15350 1-636).
T1 sequence: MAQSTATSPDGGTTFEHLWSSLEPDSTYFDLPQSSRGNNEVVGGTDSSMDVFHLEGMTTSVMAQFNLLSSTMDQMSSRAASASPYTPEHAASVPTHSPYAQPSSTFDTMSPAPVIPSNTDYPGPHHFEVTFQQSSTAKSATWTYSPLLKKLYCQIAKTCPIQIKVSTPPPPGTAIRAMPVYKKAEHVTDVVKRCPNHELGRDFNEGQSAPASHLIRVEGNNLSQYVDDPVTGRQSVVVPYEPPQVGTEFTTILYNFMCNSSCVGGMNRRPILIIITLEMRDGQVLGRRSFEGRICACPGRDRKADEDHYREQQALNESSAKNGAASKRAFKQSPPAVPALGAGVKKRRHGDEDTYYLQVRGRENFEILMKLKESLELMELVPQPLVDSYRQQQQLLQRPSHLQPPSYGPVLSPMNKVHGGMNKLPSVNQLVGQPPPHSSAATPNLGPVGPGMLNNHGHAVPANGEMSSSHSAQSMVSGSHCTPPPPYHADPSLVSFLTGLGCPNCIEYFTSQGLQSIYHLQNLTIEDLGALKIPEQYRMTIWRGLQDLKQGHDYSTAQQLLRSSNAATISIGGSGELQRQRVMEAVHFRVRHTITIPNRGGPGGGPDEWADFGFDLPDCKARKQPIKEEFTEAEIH
Briefly: fluorescence polarization; FP: 4 nM FAM duplex, 100 mM NaCl, 10 mM Tris-HCl pH 7.5, 10% glycerol, 5 mM DTT, 0.2 mg/mL BSA, room temperature; pull-down: 2 ug duplex with lysate, 90 min room temperature, then streptavidin beads 2 h 4 C. The conditions noted are these: protein: commercial; tags: GST; chain copies: 4; label: 5' 6-FAM on strand 1; blunt.

The record followed here is article PMC4226670, “TAp73 promotes cell survival upon genotoxic stress by inhibiting p53 activity”.

B1: PUMA promoter duplex, FAM (dsDNA)
DNA 1: CGCGCCTGCAAGTCCTGACTTGTCCGCGGC
DNA 2: GCCGCGGACAAGTCAGGACTTGCAGGCGCG
One may read the Kd as a measure of binding affinity in units of concentration. As to B1, the Kd amounted to 0.0871 µM. This counts as double-digit nanomolar.
